Tests used:
Test in all cases: SPR
N49P7 IgG1 = biological target: N49P7 IgG1
eN49P7-FRv1-23 IgG1 = biological target: eN49P7-FRv1-23 IgG1
N49P7-FR IgG1 = biological target: N49P7-FR IgG1
N49P7-FR IgG1, sequence (VH, as listed by the source, chain 1 of 2): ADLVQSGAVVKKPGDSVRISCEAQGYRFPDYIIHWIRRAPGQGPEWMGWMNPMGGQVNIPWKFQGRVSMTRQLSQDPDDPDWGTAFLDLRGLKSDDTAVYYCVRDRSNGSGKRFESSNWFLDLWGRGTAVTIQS
N49P7-FR IgG1, sequence (VL, as listed by the source, chain 2 of 2): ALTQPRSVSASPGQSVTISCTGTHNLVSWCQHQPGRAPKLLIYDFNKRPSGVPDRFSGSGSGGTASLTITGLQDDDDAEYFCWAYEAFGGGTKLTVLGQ

N49P7 IgG1, sequence (heavy, as listed by the source, chain 1 of 2): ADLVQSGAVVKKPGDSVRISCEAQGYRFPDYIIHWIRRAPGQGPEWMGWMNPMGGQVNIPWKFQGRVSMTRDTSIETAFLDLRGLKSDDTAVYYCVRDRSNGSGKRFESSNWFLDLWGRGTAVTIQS
N49P7 IgG1, sequence (light, as listed by the source, chain 2 of 2): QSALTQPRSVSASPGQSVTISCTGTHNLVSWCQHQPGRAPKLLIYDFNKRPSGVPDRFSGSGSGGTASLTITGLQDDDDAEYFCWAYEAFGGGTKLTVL
eN49P7-FRv1-23 IgG1, sequence (VH, as listed by the source, chain 1 of 2): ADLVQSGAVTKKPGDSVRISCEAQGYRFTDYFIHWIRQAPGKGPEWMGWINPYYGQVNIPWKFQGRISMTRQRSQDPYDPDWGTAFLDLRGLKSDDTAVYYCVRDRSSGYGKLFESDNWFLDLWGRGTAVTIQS
eN49P7-FRv1-23 IgG1, sequence (VL, as listed by the source, chain 2 of 2): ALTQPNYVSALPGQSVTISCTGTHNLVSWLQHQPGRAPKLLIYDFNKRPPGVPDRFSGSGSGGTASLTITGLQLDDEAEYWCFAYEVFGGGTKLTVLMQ

Row | Substance | Kd (N49P7 IgG1) | koff (N49P7 IgG1) | kon (N49P7 IgG1) | Kd (eN49P7-FRv1-23 IgG1) | koff (eN49P7-FRv1-23 IgG1) | kon (eN49P7-FRv1-23 IgG1) | Kd (N49P7-FR IgG1) | koff (N49P7-FR IgG1) | kon (N49P7-FR IgG1)
1 | HIV gp120 BJOX2000 (clade BC) (natural protein) | > 1000 nM | 0.0024 s⁻¹ | 680 M⁻¹ s⁻¹ | 50 nM | 0.00092 s⁻¹ | 18000 M⁻¹ s⁻¹ | > 1000 nM | 0.0025 s⁻¹ | 280 M⁻¹ s⁻¹
2 | HIV gp120 CH119 (clade BC) (natural protein) | – | – | – | 20 nM | 0.00053 s⁻¹ | 27000 M⁻¹ s⁻¹ | 110 nM | 0.0008 s⁻¹ | 7400 M⁻¹ s⁻¹
3 | HIV gp120 CAP45 (clade C) (natural protein) | – | – | – | 31 nM | 0.0031 s⁻¹ | 100000 M⁻¹ s⁻¹ | 140 nM | 0.0017 s⁻¹ | 12000 M⁻¹ s⁻¹
4 | HIV gp120 Ce1176 (clade C) (natural protein) | – | – | – | 17 nM | 0.00069 s⁻¹ | 42000 M⁻¹ s⁻¹ | 63 nM | 0.00059 s⁻¹ | 9400 M⁻¹ s⁻¹
5 | HIV gp120 6041.v3 (clade AC) (natural protein) | 100 nM | 0.0032 s⁻¹ | 31000 M⁻¹ s⁻¹ | 24 nM | 0.001 s⁻¹ | 44000 M⁻¹ s⁻¹ | 190 nM | 0.0026 s⁻¹ | 14000 M⁻¹ s⁻¹
6 | HIV gp120 TRO.11 (clade B) (natural protein) | – | – | – | 44 nM | 0.00074 s⁻¹ | 17000 M⁻¹ s⁻¹ | 120 nM | 0.0012 s⁻¹ | 9900 M⁻¹ s⁻¹
7 | HIV gp120 93TH057 (clade AE) (natural protein) | – | – | – | 29 nM | 0.0015 s⁻¹ | 51000 M⁻¹ s⁻¹ | 19 nM | 0.0022 s⁻¹ | 120000 M⁻¹ s⁻¹
8 | HIV gp120 IAVI-C22 (clade C) (natural protein) | 230 nM | 0.0011 s⁻¹ | 4900 M⁻¹ s⁻¹ | 65 nM | 0.00092 s⁻¹ | 14000 M⁻¹ s⁻¹ | > 1000 nM | 0.0014 s⁻¹ | 200 M⁻¹ s⁻¹
9 | HIV gp120 CNE8 (clade AE) (natural protein) | 73 nM | 0.00079 s⁻¹ | 11000 M⁻¹ s⁻¹ | 47 nM | 0.0011 s⁻¹ | 24000 M⁻¹ s⁻¹ | 15 nM | 0.0013 s⁻¹ | 88000 M⁻¹ s⁻¹
